Experimental findings from patent publication US20200199241A1 (Chugai, published 2020) are described below.

Where a chain is given by its changes, count along the chain named. In names and notes the source's numbering stands. Where two headings read alike, the source gives them in different places.

Assay [1] concerns the target T1, mouse FcγRIIb (mouse, UniProt P08101 30-207, limits assumed).
T1 construct: bought; also called mFcgRIIb; mFcgR IIb
T1 sequence (looked up): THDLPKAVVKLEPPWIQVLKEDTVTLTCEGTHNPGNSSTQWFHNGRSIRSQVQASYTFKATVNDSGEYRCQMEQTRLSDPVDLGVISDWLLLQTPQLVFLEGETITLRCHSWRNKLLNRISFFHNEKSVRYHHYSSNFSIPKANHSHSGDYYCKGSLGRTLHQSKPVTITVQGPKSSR
The assay can be described thus: SPR, antibody captured by Protein L, mouse FcγR as analyte, pH 7.4, 25 C. Set-up: unit not given here. (In general: In SPR one partner is held on a chip, and binding of the other changes the refractive index at the surface.)

Assay [2] concerns the target T2, mouse FcγRIV (mouse, UniProt A0A0B4J1G0 21-203).
T2 construct: bought; also called mFcgRIV; mFcgR IV; the vendor's purification tag not given
T2 sequence: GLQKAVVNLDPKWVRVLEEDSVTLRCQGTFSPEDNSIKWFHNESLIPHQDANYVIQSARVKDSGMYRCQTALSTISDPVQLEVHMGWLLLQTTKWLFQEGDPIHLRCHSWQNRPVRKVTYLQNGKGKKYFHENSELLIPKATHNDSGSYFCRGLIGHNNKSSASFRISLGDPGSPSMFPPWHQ
The assay is described as above. More on the design: unit not given here.

Assay [3] addresses T3, mouse FcγRI (mouse, UniProt P26151 25-297).
T3 construct: bought; also called mFcgRI; mFcgR 1
T3 sequence (looked up): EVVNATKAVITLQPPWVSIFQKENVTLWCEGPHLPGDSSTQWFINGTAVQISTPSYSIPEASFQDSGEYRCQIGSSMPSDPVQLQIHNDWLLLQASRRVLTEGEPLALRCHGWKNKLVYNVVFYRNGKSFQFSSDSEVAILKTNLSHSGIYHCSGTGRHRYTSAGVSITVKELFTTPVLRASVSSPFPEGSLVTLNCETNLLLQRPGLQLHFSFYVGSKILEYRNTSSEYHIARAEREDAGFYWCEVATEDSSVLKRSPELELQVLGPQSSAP
Described as above. Set-up: unit not given here.

Assay [4] deals with T4, mouse FcγRIII (mouse, UniProt P08508 31-215).
T4 construct: bought; also called mFcgRIII; mFcgR III
T4 sequence (looked up): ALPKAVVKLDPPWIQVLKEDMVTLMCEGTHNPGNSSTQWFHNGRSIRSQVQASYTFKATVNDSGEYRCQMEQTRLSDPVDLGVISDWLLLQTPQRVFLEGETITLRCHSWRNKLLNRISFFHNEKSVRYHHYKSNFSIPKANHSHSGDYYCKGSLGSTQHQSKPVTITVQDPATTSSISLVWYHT
The description is as above. Set-up: unit not given here.

The target in a further assay is T5, human FcγRIa (human, UniProt P12314 16-292, limits assumed).
T5 construct: also called hFcgRIa; hFcgRI
T5 sequence (P12314 16-292 limits assumed): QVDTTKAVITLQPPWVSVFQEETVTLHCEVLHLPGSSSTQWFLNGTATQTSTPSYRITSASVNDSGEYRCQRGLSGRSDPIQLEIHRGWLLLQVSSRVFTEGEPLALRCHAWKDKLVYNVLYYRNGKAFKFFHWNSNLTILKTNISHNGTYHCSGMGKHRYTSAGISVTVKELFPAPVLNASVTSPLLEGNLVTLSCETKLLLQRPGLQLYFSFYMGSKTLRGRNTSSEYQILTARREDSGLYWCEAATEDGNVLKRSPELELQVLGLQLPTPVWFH
The assay is described as follows: SPR, antibody captured by Protein L, human FcγR as analyte, pH 7.4, 25 C.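 Further: biacore T100 or T200 with Protein L amine-coupled on a CM4 chip, FcγRs diluted in ACES saline with polysorbate 20, buffer-only injection as blank.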

Another assay has as its target T6, human FcγRIIIa(V) (human, UniProt P08637 17-208, limits assumed).
T6 construct: also called hFcgRIIIa(V); allotype V158
The assay is described as above.

Another assay addresses T7, human FcγRIIa(H) (human, UniProt P12318 36-217).
T7 construct: also called hFcgRIIa(H); FcγRIIa type H
T7 sequence: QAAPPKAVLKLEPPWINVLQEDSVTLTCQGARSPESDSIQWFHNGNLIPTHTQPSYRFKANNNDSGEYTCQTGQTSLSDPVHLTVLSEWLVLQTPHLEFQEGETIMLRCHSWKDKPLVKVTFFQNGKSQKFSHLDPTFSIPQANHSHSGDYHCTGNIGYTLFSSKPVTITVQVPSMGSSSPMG
Described as above.

Another assay has as its target T8, human FcγRIIa(R) (human, UniProt P12318 36-217).
T8 construct: also called hFcgRIIa(R); FcγRIIa type R
T8 chain: T7 sequence with H133R
Described as above.

A further assay addresses T9, human FcγRIIb (human, UniProt P31994 43-217, limits assumed).
T9 construct: also called hFcgRIIb; FcγIIB
T9 sequence: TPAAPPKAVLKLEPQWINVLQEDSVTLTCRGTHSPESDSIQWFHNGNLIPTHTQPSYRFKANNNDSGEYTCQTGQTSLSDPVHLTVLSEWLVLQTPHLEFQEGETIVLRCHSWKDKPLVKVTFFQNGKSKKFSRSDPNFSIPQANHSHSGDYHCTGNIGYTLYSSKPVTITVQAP
Described as above.

Assay [5] concerns the target T10, human FcRn (soluble human FcRn complexed with β2-microglobulin) (human, UniProt P61769 21-119, limits assumed).
T10 construct: also called hFcRn
The assay is described as follows: SPR, antibody captured by Protein L, human FcRn as analyte, pH 7.0, 25 C.

Assay [6] concerns the target T1, mouse FcγRIIb. The assay is described as follows: SPR, antibody captured by Protein L, mouse FcγR as analyte, pH 7.4, 25 C.
Assay [7] concerns the target T2, mouse FcγRIV. The assay is described as above.
Assay [8] deals with T3, mouse FcγRI. The assay is described as above.
Assay [9] has as its target T4, mouse FcγRIII. Described as above.
The target of assay [10] is T10, human FcRn (soluble human FcRn …). The assay is described as follows: SPR, antibody captured by Protein L, human FcRn as analyte, pH 7.0, 25 C. The source holds these as a separate data set.
Assay [11] has the same target. The description is as above. The source holds these as a separate data set.

T10 sequence (chain, as listed by the source limits assumed, chain 1 of 2): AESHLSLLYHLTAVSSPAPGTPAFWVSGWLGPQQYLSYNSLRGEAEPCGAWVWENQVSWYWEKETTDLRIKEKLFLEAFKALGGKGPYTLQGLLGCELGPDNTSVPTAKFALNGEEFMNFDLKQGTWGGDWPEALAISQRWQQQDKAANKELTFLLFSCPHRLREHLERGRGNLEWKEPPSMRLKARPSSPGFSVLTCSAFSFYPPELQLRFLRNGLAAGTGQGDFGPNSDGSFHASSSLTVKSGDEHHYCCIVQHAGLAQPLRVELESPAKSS
T10 sequence (P61769 21-119 limits assumed, chain 2 of 2): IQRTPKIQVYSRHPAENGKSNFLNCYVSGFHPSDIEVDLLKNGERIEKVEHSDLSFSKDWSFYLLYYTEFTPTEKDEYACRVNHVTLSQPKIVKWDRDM
T6 sequence (P08637 other isoform, or with tags, fused parts or gaps limits assumed): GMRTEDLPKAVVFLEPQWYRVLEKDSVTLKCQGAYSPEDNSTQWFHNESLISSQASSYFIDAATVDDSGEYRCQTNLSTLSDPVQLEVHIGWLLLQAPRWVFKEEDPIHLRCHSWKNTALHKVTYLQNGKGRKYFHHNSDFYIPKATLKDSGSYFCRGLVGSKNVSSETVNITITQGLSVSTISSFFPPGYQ

B1: antibody with VH3-IgG1-F947 heavy chain and L(WT)-CK light chain (antibody)
heavy: QVQLQESGPGLVKPSETLSLTCAVSGHSISHDHAWSWVRQPPGEGLEWIGFISYSGITNYNPSLQGRVTISRDNSKNTLYLQMNSLRAEDTAVYYCARSLARTTAMDYWGEGTLVTVSSASTKGPSVFPLAPSSKSTSGGTAALGCLVKDYFPEPVTVSWNSGALTSGVHTFPAVLQSSGLYSLSSVVTVPSSSLGTQTYICNVNHKPSNTKVDKKVEPKSCDKTHTCPPCPAPELLGGPSVFLFPPKPKDVLYISRTPEVTCVVVDVSHEDPEVKFNWYVDGVEVHNAKTKPREEQYNSTYRVVSVLQPLHADWLNGKEYKCKVSNKALPAPIEKTISKAKGQPREPQVYTLPPSRDELTKNQVSLTCLVKGFYPSDIAVEWESNGQPENNYKTTPPVLDSDGSFFLYSKLTVDKSRWQQGNVFSCSVMHEALHYHVTQKSLSLSP
light: not shown
notes: T250V/M252Y/T307Q/V308P/Q311A/N434Y/Y436V; copies: 2 + 2
For the molecule B1, the “binding amount” value amounted to 129 in the assay with mouse FcγRIIb [1], 279 with mouse FcγRIV [2], 329 with mouse FcγRI [3] and 664 in the assay with mouse FcγRIII [4]. The “BINDING AMOUNT (RU)” value was 368 RU with human FcγRIa; 221 RU with human FcγRIIIa(V); 154 RU with human FcγRIIa(H); 148 RU with human FcγRIIa(R); 70.6 RU with human FcγRIIb; 117 RU with mouse FcγRIIb [6]. For the same molecule, the “BINDING AMOUNT (RU)” value came to 242 RU in the assay with mouse FcγRIV [7], 299 RU with mouse FcγRI [8] and 382 RU with mouse FcγRIII [9]. In addition, the Kd in assay [5], in assay [10] and in assay [11] was 11 nM throughout.

In general, Kd refers to the constant that tells how readily two partners part at equilibrium.
